# Experimental data published in paper PMC11573500.
# Several values for one entry are separate records, joined by “and”; a condition that tells them apart may be missing. Equal values may be shown once.
# Assays:
# [1] = target: dephosphorylated human CFTR E1371Q (human) (UniProt P13569); assay: cryo-EM structure; 30 uM dephosphorylated E1371Q CFTR in digitonin, 250 uM bovine PKA-C, 1 mM P-ATP/Mg2+ and 1 mM AMP-PNP/Mg2+; 200 mM NaCl, 20 mM HEPES pH 7.4, 1 mM DTT
# [2] = target: CFTR E51A expressed in Xenopus laevis oocytes (human) (UniProt P13569)
# [3] = target: CFTR D58A expressed in Xenopus laevis oocytes (human) (UniProt P13569)
# [4] = target: CFTR D47A expressed in Xenopus laevis oocytes (human) (UniProt P13569)
# [5] = target: dephosphorylated wild-type human CFTR (human) (UniProt P13569); assay: cryo-EM structure; 30 uM dephosphorylated wild-type CFTR in digitonin, 250 uM bPKA-C, 2 mM AMP-PNP/Mg2+; 200 mM NaCl, 20 mM HEPES pH 7.4, 1 mM DTT
# [6] = target: phosphorylated human CFTR E1371Q (human) (UniProt P13569); assay: cryo-EM structure; phosphorylated E1371Q CFTR (~5 mg/mL) in digitonin with PKA-C (~10 mg/mL), 3 mM ATP/Mg2+; 200 mM NaCl, 20 mM HEPES pH 7.4, 1 mM DTT
# [7] = target: WT CFTR expressed in Xenopus laevis oocytes (human) (UniProt P13569)
Substance,stoichiometry N (PKA-C per CFTR) [1],"half-time (t1/2) of macroscopic current activation by 300 nM bPKA-C in 2 mM ATP, relative to WT CFTR [2] [fold]","half-time (t1/2) of macroscopic current activation by 300 nM bPKA-C in 2 mM ATP, relative to WT CFTR [3] [fold]","half-time (t1/2) of macroscopic current activation by 300 nM bPKA-C in 2 mM ATP, relative to WT CFTR [4] [fold]",stoichiometry N (PKA-C per CFTR) [5],stoichiometry N (PKA-C per CFTR) [6],"half-time (t1/2) of current activation by 300 nM rPKA-C in 2 mM ATP, relative to 300 nM bPKA-C on WT CFTR [7] [fold]"
protein kinase A catalytic subunit purified from bovine heart (from UniProt P00517 1-351) (enzyme),1,2,2,2,1 and 2,1,
"recombinant bovine PKA-C, wild type (from UniProt P00517 1-351) (enzyme)",,,,,,,6
